According to the supplement of paper PMC7877785:
± gives the uncertainty stated by the source.

Assay: self-splicing fitness, log relative to wild type (ln ratio); higher = more splicing; Tetrahymena group I intron in knt gene, E. coli kanamycin selection, DiMSum; sequences stand for … in CUCUCU…GGAGGGAAAAGUUAUCAGGCAUGCACCUGGUAGCUAGUCUUUAAACCAAUAGAUUGCAUCGGUUUAAAAGGCAAGACCGUCAAAUUGCGGGAAAGGGGUCAACAGCCGUUCAGUACCAAGUCUCAGGGGAAACUUUGAGAUGGCCUUGCAAAGGGUAUGGUAAUAAGCUGACGGACAUGGUCCUAACCACGCAGCCAAGUCCUAAGUCAACAGAUCUUCUGUUGAUAUGGAUGCAGUUCACAGACUAAAUGUCGGUCGGGGAAGAUGUAUUCUUCUCAUAAGAUAUAGUCGGACCUCUCCUUAAUGGGAGCUAGCGGAUGAAGUGAUGCAACACUGGAGCCGCUGGGAACUAAUUUGUAUGCGAAAGUAUAUUGAUUAGUUUUGGAGUACUCGUGGUCG
Summary of the method: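 Six replicate transformations of E. coli BL21(DE3) with a pET-22b(+) library were grown overnight at 37°C or 30°C. The library randomised all eight P1ex-region intron nucleotides, the intron lying in the knt kanamycin-resistance gene, and plates were LB agar with or without 25 μg/mL kanamycin plus 100 μg/mL carbenicillin, 50 μM IPTG and 0.2% rhamnose. Pooled colonies were amplicon-sequenced on an Illumina HiSeq 2500, and fitness is the DiMSum error-weighted combination of wild-type-normalised replicate fold changes, kanamycin versus none.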

Row | Sequence | self-splicing fitness (ln) (30 °C) | self-splicing fitness (ln) (37 °C)
1 | AACCAGCAAUAUUACGCGGG | -4.5 ± 0.24 | -3.16 ± 0.24
2 | UCUAAGCAAUAUUACGGUGU | -1.75 ± 0.083 | -1.34 ± 0.093
3 | CCUAAGCAAUAUUACGAAAA | -3.53 ± 0.28 | -2.44 ± 0.19
4 | AGCUAGCAAUAUUACGGUGG | -2.04 ± 0.092 | -2.46 ± 0.17
5 | GCUCAGCAAUAUUACGGAAU | -0.424 ± 0.083 | 0.224 ± 0.12
6 | UACGAGCAAUAUUACGUUAC | -2.96 ± 0.42 | –
7 | UGGUAGCAAUAUUACGGUCA | -0.695 ± 0.097 | -0.176 ± 0.1
8 | UCGGAGCAAUAUUACGAUCA | – | -1.23 ± 0.48
9 | GCGUAGCAAUAUUACGAUCA | -0.167 ± 0.14 | 0.0769 ± 0.14
10 | ACCAAGCAAUAUUACGACGG | -0.86 ± 0.08 | 0.495 ± 0.1
11 | UCUAAGCAAUAUUACGCCAA | -1.47 ± 0.32 | -0.954 ± 0.23
12 | CUCAAGCAAUAUUACGGUAA | -1.8 ± 0.27 | -1.66 ± 0.18
13 | GCCGAGCAAUAUUACGCUUU | -1.61 ± 0.082 | -0.235 ± 0.093
14 | CCGAAGCAAUAUUACGCACA | -3.87 ± 0.37 | -2.59 ± 0.28
15 | GCGAAGCAAUAUUACGAGGC | – | -1.65 ± 0.45
16 | CUAUAGCAAUAUUACGCGAA | -3.27 ± 0.2 | -3.06 ± 0.33
17 | CGCAAGCAAUAUUACGGCUA | -1.15 ± 0.063 | -0.556 ± 0.076
18 | UCUAAGCAAUAUUACGGGCC | -3.14 ± 0.33 | -2.09 ± 0.33
19 | AACUAGCAAUAUUACGCCAC | – | -1.79 ± 0.36
20 | CAAUAGCAAUAUUACGAUCA | -2.41 ± 0.17 | -2.17 ± 0.16
21 | UCAGAGCAAUAUUACGAGAG | -3.72 ± 0.27 | -3.27 ± 0.42
22 | GACUAGCAAUAUUACGCAAU | -1.34 ± 0.19 | -1.38 ± 0.17
23 | GCUGAGCAAUAUUACGUAAG | -1.55 ± 0.12 | -0.739 ± 0.16
24 | GAUUAGCAAUAUUACGACAC | -0.38 ± 0.17 | -1.07 ± 0.17
25 | CAACAGCAAUAUUACGACUU | -0.591 ± 0.058 | -0.268 ± 0.074
26 | GAAAAGCAAUAUUACGUCUU | -0.419 ± 0.068 | 0.391 ± 0.086
27 | ACUAAGCAAUAUUACGCCGG | -1.03 ± 0.11 | -0.877 ± 0.18

Row | Sequence | self-splicing fitness (ln) (30 °C) | self-splicing fitness (ln) (37 °C)
28 | UGUCAGCAAUAUUACGCAAU | -1.81 ± 0.14 | -2.24 ± 0.2
29 | UCAAAGCAAUAUUACGCACU | -2.08 ± 0.11 | -2.5 ± 0.22
30 | UGCGAGCAAUAUUACGCGUU | -3.38 ± 0.27 | -1.39 ± 0.18
31 | CCGCAGCAAUAUUACGGCUA | -3.46 ± 0.23 | -2.61 ± 0.22
32 | CGGGAGCAAUAUUACGCUAA | -2.62 ± 0.43 | –
33 | UUAUAGCAAUAUUACGCGGU | -3.14 ± 0.28 | -1.64 ± 0.28
34 | UUUAAGCAAUAUUACGGCCA | -0.688 ± 0.11 | -0.335 ± 0.15
35 | GCAUAGCAAUAUUACGGUUC | -2.21 ± 0.12 | -0.892 ± 0.13
36 | CGAGAGCAAUAUUACGCAAU | -2.58 ± 0.36 | –
37 | ACGAAGCAAUAUUACGGACA | -0.643 ± 0.14 | -0.915 ± 0.15
38 | CACAAGCAAUAUUACGCUGA | -2.12 ± 0.12 | -1.72 ± 0.12
39 | UCACAGCAAUAUUACGCAAA | -2.74 ± 0.19 | -2.91 ± 0.17
40 | AGAUAGCAAUAUUACGAAGA | – | -1.12 ± 0.39
41 | CUAUAGCAAUAUUACGCGUC | -3.97 ± 0.34 | -2.71 ± 0.25
42 | CGAUAGCAAUAUUACGACGU | -0.903 ± 0.065 | 0.0313 ± 0.07
43 | GCGUAGCAAUAUUACGAAUC | -1.05 ± 0.17 | -0.37 ± 0.2
44 | AGACAGCAAUAUUACGGUGU | -3.34 ± 0.12 | -2.59 ± 0.12
45 | AGCCAGCAAUAUUACGGAAU | -1.76 ± 0.12 | -1.52 ± 0.14
46 | CGAAAGCAAUAUUACGCUCU | -2.56 ± 0.14 | -1.56 ± 0.15
47 | CCUAAGCAAUAUUACGUGAU | -4.46 ± 0.23 | -2.71 ± 0.21
48 | AGUCAGCAAUAUUACGUCGA | -0.487 ± 0.1 | -0.568 ± 0.13
49 | AAGCAGCAAUAUUACGUUUA | -1.53 ± 0.084 | -0.691 ± 0.074
50 | ACUUAGCAAUAUUACGAAGU | -3.91 ± 0.22 | -1.61 ± 0.19
51 | UCAGAGCAAUAUUACGGUCG | -2.95 ± 0.16 | -1.32 ± 0.14
52 | UUCCAGCAAUAUUACGGCUG | -3.09 ± 0.2 | -2.68 ± 0.25
53 | CCCAAGCAAUAUUACGCGUC | -3.06 ± 0.16 | -2.6 ± 0.29
54 | AACCAGCAAUAUUACGCGAU | -3.69 ± 0.19 | -1.77 ± 0.15

Row | Sequence | self-splicing fitness (ln) (30 °C) | self-splicing fitness (ln) (37 °C)
55 | UUAGAGCAAUAUUACGGAAA | -2.59 ± 0.19 | -1.72 ± 0.23
56 | AGUAAGCAAUAUUACGUGCA | -1.36 ± 0.085 | -0.712 ± 0.092
57 | GUAUAGCAAUAUUACGCUUA | -2.39 ± 0.17 | -1.23 ± 0.2
58 | UCGGAGCAAUAUUACGUCAA | – | -2.12 ± 0.38
59 | UUUGAGCAAUAUUACGGAGC | -2.02 ± 0.49 | –
60 | AUCGAGCAAUAUUACGUGAU | – | -1.87 ± 0.43
61 | UUAAAGCAAUAUUACGACGU | -0.129 ± 0.069 | 0.0726 ± 0.1
62 | UCUUAGCAAUAUUACGGAAU | -4.47 ± 0.26 | -1.93 ± 0.16
63 | ACUUAGCAAUAUUACGUAUC | -3.56 ± 0.22 | -2.37 ± 0.24
64 | CGCUAGCAAUAUUACGGUUU | -1.69 ± 0.053 | -0.856 ± 0.074
65 | GCAUAGCAAUAUUACGUCAC | -3.21 ± 0.16 | -2.08 ± 0.22
66 | ACUGAGCAAUAUUACGAGGA | -2.63 ± 0.23 | -1.83 ± 0.17
67 | AGGAAGCAAUAUUACGCUGA | -2.96 ± 0.23 | -1.97 ± 0.22
68 | CCGGAGCAAUAUUACGGUUA | -2.44 ± 0.35 | -2.64 ± 0.48
69 | GGUAAGCAAUAUUACGUCGA | – | -0.708 ± 0.25
70 | GUGGAGCAAUAUUACGAUGC | -1.96 ± 0.15 | -1.03 ± 0.16
71 | AGCCAGCAAUAUUACGCCGG | – | -3.39 ± 0.27
72 | GCUGAGCAAUAUUACGUAAA | -2.97 ± 0.19 | -2.31 ± 0.17
73 | GCGCAGCAAUAUUACGUUUC | -1.35 ± 0.057 | -0.727 ± 0.074
74 | GACAAGCAAUAUUACGGCCC | -0.324 ± 0.16 | 0.203 ± 0.28
75 | UGCAAGCAAUAUUACGCACA | -1.38 ± 0.12 | -0.954 ± 0.13
76 | UAUGAGCAAUAUUACGCGAU | – | -2.93 ± 0.37
77 | UCAGAGCAAUAUUACGCUGA | -3.04 ± 0.34 | -2.1 ± 0.37
78 | CACCAGCAAUAUUACGUGGA | -3.55 ± 0.12 | -2.12 ± 0.09
79 | UCUAAGCAAUAUUACGAGUC | -3.41 ± 0.3 | -2.93 ± 0.3
